From PMC5818060 (Journal of Cell Science, 2018)

Columns and labels:
[1] = tested on: endogenous CK1 / CK1 sensor in HEK293T cells; assay: CK1 FRET biosensor, microplate reader FRET/CFP ratio; assay type: cell-based, human; settings: HEK293T, n=3
Protocol: HEK293T cells were seeded at a density of 20,000 cells/well on 96-well black microplates (PS, μClear, clear bottom, chimney well, Greiner No. 655090). Transfection was performed as described above. Unless indicated otherwise, the respective cell populations were transfected with 50-100 ng CK1 FRET biosensor, 100 ng regulator (i.e. N-Flag DDX3X) and 1-10 ng kinase (i.e. N-Flag CK1ε). Either empty pCS2 N-Flag vector or luciferase were used to transfect the same amount of DNA in every well. Generally, the different samples were run in triplicate for each individual experiment. […]
Where applicable, the small-molecule CK1 inhibitor D4476 (BioVision) was added to the cells 2-4 h prior to the analysis. […] Analysis was performed 48-60 h after transfection on an Infinite M1000 PRO microplate reader (Tecan) by exciting CFP with a wavelength of 433 nm and measuring the resulting emission at 460-600 nm in 2 nm increments. Fluorometric spectra were background subtracted with spectra recorded from wells with non-transfected cells. Resulting FRET/CFP ratios were calculated by dividing the intensity values at the respective peaks (478 nm for CFP, 528 nm for YFP) and analyzed essentially as described ([Fritz et al., 2013]). […]

[2] = tested on: Dvl phosphorylation in HEK293T cells; assay: Dvl phosphorylation shift on Western blot; assay type: cell-based, human; settings: 50 or 100 ng Flag-DDX3X DNA
CK1ε = assay: Mass spectrometric detection of DDX3X phosphorylation by CK1ε in vitro; assay type: biochemical, human; set-up: key to Probability of phosphorylation, T469 (symbol) / Probability of phosphorylation, S470 (symbol) / Probability of phosphorylation, S429 (symbol): –: no phosphorylation detected; settings: phosphorylated by CK1ε in vitro; tryptic digestion, MS
Protocol: (§1) Kinase assays were carried out essentially as described ([Cruciat et al., 2013]). For kinase assays, full-length DDX3X protein was expressed and purified from HEK293T cells as described for the ATPase assay. Deletion constructs were purified from E. coli. The eluted proteins were visualized using Coomassie Blue and the intensity of the protein bands was measured using ImageJ. The amounts used for kinase assays were estimated based on this staining. Where indicated, dsRNA was premixed with proteins at room temperature (RT) for 15 min before subjecting samples to radioactive kinase assays. The CK1 substrate peptide […] for the kinase assay and samples was analyzed using p81 phosphocellulose (Biomol) as described ([Zhai et al., 1992]). 0.3 µM CK1δ/ε-derived and control peptides were used ([Schacherl et al., 2015]). For mass spectrometric analyses DDX3X helicase core (His-DDX3X^168-582) as well as the C-terminal helicase domain (His-DDX3X^414-582) were in vitro phosphorylated by CK1ε. Also, reactions without addition of kinase were performed and analyzed in order to correct for false-positive results. Mass spectrometry data acquisition and analysis of trypsin-digested samples were performed at the Core Unit Mass Spectrometry and Proteomics (Ulm University) essentially as described in [Meng et al. (2016)].

[3] = tested on: DDX3X-stimulated CK1ε (CK1εΔC); assay: In vitro radioactive kinase assay, DDX3X-stimulated CK1ε activity; assay type: biochemical, human; settings: recombinant DDX3X, CK1 peptide substrate, radioactive; n=3
Protocol: as §1

DDX3X = assay: ATPase assay of DDX3X; assay type: biochemical, human; settings: full-length Flag-DDX3X, dsRNA 17-68 nM, 37°C, 40 min, 1 mM ATP; n=3
Protocol: For the ATPase assay, Flag-tagged DDX3X full-length constructs were expressed in HEK293T cells. After purifying and eluting DDX3X from the beads, an aliquot of the eluates was resolved by SDS-PAGE in order to monitor the different DDX3X levels via western blotting and ImageJ. Based on this comparison, similar amounts of full-length DDX3X protein were used. Approximately 100 ng Flag-DDX3X protein and 10 ng His-CK1ε were used in a 60 μl reaction mix (reaction buffer: 20 mM Tris-HCl, pH 7.4, 200 mM NaCl, 0.5 mM DTT, 1 mM MgCl2, 1 mM ATP) with dsRNA (17 nM, 34 nM, 68 nM); the reaction was carried out at 37°C for 40 min. To phosphorylate DDX3X, 500 ng His-CK1εΔC or His-CK1εΔC^K38R were added in kinase buffer before eluting the DDX3X protein from the Sepharose magnetic Flag beads (Sigma). Incubation was performed at 37°C for 30 min. Then, beads were washed with 50 mM Tris-HCl, pH 7.5 and 500 mM NaCl before elution with Flag peptide. Termination of the helicase reaction was done with 10 μl of 50% TCA solution added to each reaction followed by centrifugation at 3000 g for 5 min at 4°C. Reaction mix was mixed with coloring solution (35 mM ammonium molybdate, 10 mM zinc acetate, 10% ascorbic acid, pH 5) in a 96-well plate before analysis using a spectrometer (wavelength 700 nm).

B1: DDX3X: human DEAD box RNA helicase DDX3X (UniProt O00571) (protein)
chain: MSHVAVENALGLDQQFAGLDLNSSDNQSGGSTASKGRYIPPHLRNREATKGFYDKDSSGWSSSKDKDAYSSFGSRSDSRGKSSFFSDRGSGSRGRFDDRGRSDYDGIGSRGDRSGFGKFERGGNSRWCDKSDEDDWSKPLPPSERLEQELFSGGNTGINFEKYDDIPVEATGNNCPPHIESFSDVEMGEIIMGNIELTRYTRPTPVQKHAIPIIKEKRDLMACAQTGSGKTAAFLLPILSQIYSDGPGEALRAMKENGRYGRRKQYPISLVLAPTRELAVQIYEEARKFSYRSRVRPCVVYGGADIGQQIRDLERGCHLLVATPGRLVDMMERGKIGLDFCKYLVLDEADRMLDMGFEPQIRRIVEQDTMPPKGVRHTMMFSATFPKEIQMLARDFLDEYIFLAVGRVGSTSENITQKVVWVEESDKRSFLLDLLNATGKDSLTLVFVETKKGADSLEDFLYHEGYACTSIHGDRSQRDREEALHQFRSGKSPILVATAVAARGLDISNVKHVINFDLPSDIEEYVHRIGRTGRVGNLGLATSFFNERNINITKDLLDLLVEAKQEVPSWLENMAYEHHYKGSSRGRSKSSRFSGGFGARDYRQSSGASSSSFSSSRASSSRSGGGGHGSSRGFGGGGYGGFYNSDGYGGNYNSQGVDWWGN
modifications: left off: Flag, N-terminal, kept
cooperation of DDX3X with co-expressed CK1 isoforms (FRET/CFP ratio) ([1]; CK1 sensor with CK1 isoform): predominantly synergized with limiting amounts of CK1ε rather than with CK1δ and CK1α isoforms
effect of co-expressed DDX3X on FRET/CFP ratio of CK1 sensor ([1]; DDX3X without added CK1): not sufficient to significantly enhance endogenous CK1 activity
stimulation of Dvl phosphorylation [2]: the wild-type protein alone could not

B2: His-DDX3X^168-582: DDX3X helicase core (aa 168–582), 6× histidine tag (protein, UniProt O00571 168-582, looked up, fragment)
chain: VEATGNNCPPHIESFSDVEMGEIIMGNIELTRYTRPTPVQKHAIPIIKEKRDLMACAQTGSGKTAAFLLPILSQIYSDGPGEALRAMKENGRYGRRKQYPISLVLAPTRELAVQIYEEARKFSYRSRVRPCVVYGGADIGQQIRDLERGCHLLVATPGRLVDMMERGKIGLDFCKYLVLDEADRMLDMGFEPQIRRIVEQDTMPPKGVRHTMMFSATFPKEIQMLARDFLDEYIFLAVGRVGSTSENITQKVVWVEESDKRSFLLDLLNATGKDSLTLVFVETKKGADSLEDFLYHEGYACTSIHGDRSQRDREEALHQFRSGKSPILVATAVAARGLDISNVKHVINFDLPSDIEEYVHRIGRTGRVGNLGLATSFFNERNINITKDLLDLLVEAKQEVPSWLENMAYEHHYKG
modifications: N-terminal 6xHis tag
notes: DDX3X helicase core (aa 168–582), 6× histidine tag
Probability of phosphorylation, S429 (CK1ε): 100%
Probability of phosphorylation, S470 (symbol) (CK1ε): –
Probability of phosphorylation, S543 (CK1ε): 88.7%
Probability of phosphorylation, T469 (symbol) (CK1ε): –

B3: His-DDX3X^414-582: C-terminal helicase domain of DDX3X (aa 414–582), 6× histidine tag (protein)
chain: NITQKVVWVEESDKRSFLLDLLNATGKDSLTLVFVETKKGADSLEDFLYHEGYACTSIHGDRSQRDREEALHQFRSGKSPILVATAVAARGLDISNVKHVINFDLPSDIEEYVHRIGRTGRVGNLGLATSFFNERNINITKDLLDLLVEAKQEVPSWLENMAYEHHYKG
modifications: left off: His, end not stated, kept
notes: C-terminal helicase domain of DDX3X (aa 414–582), 6× histidine tag
stimulation of CK1ε kinase activity in vitro [3]: sufficient to stimulate CK1ε∆C activity
Probability of phosphorylation, S429 (symbol) (CK1ε): –
Probability of phosphorylation, S470 (CK1ε): 100%
Probability of phosphorylation, S543 (CK1ε): 92.7%
Probability of phosphorylation, T469 (CK1ε): 100%

B4: CK1εΔC: CK1ε lacking the C-terminal 112 amino acids, constitutively active (protein, UniProt P49674 1-304, looked up, fragment)
chain: MELRVGNKYRLGRKIGSGSFGDIYLGANIASGEEVAIKLECVKTKHPQLHIESKFYKMMQGGVGIPSIKWCGAEGDYNVMVMELLGPSLEDLFNFCSRKFSLKTVLLLADQMISRIEYIHSKNFIHRDVKPDNFLMGLGKKGNLVYIIDFGLAKKYRDARTHQHIPYRENKNLTGTARYASINTHLGIEQSRRDDLESLGYVLMYFNLGSLPWQGLKAATKRQKYERISEKKMSTPIEVLCKGYPSEFSTYLNFCRSLRFDDKPDYSYLRQLFRNLFHRQGFSYDYVFDWNMLKFGAARNPEDV
modifications: His tag
effect of CK1ε protein on RNA-stimulated ATPase activity of DDX3X (DDX3X): much less stimulated by dsRNA

B5: CK1εΔC^K38R: kinase-dead mutant of CK1εΔC (protein, UniProt P49674 1-416, looked up, variant K38R del305-416)
Casein kinase I isoform …: MELRVGNKYRLGRKIGSGSFGDIYLGANIASGEEVAIRLECVKTKHPQLHIESKFYKMMQGGVGIPSIKWCGAEGDYNVMVMELLGPSLEDLFNFCSRKFSLKTVLLLADQMISRIEYIHSKNFIHRDVKPDNFLMGLGKKGNLVYIIDFGLAKKYRDARTHQHIPYRENKNLTGTARYASINTHLGIEQSRRDDLESLGYVLMYFNLGSLPWQGLKAATKRQKYERISEKKMSTPIEVLCKGYPSEFSTYLNFCRSLRFDDKPDYSYLRQLFRNLFHRQGFSYDYVFDWNMLKFGAARNPEDV
modifications: His tag
effect of CK1ε protein on RNA-stimulated ATPase activity of DDX3X (DDX3X): still allowed dsRNA stimulation of the ATPase activity
